Measured values reported in the supplement of paper PMC10567573.

B1: APBB1IP (parent)
chain: FNYSVGFKDLNESLNALEDQDLDA

Variants of: B1
Test: protein stability index of a GFP-peptide fusion (GPS, HEK-293T) (PSI 1-6); higher = more stable
Details: c terminus: a fixed tail appended
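Note: lentivirally expressed fusions sorted by FACS into six bins by GFP to DsRed ratio, PSI derived from sequencing read proportions per bin multiplied by bin number.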

Protein stability index of substitutions, site by site:
S4: C 4.31; T 4.62; E 5.53; R 4.82; P 3.29; I 3.76; L 3.71; Y 3.42; V 3.72; M 4.23; W 2.56; K 4.02; A 4.53; D 5.11; Q 5.1; G 4.88; F 3.24; N 4.61; H 4.79
N11: G 4.29; P 4.23; L 3.78; K 4.17; E 4.88; M 3.68; H 4.21; A 4.45; F 3.62; D 4.75; Q 4.38; C 4.06; I 3.31
N2: F 3.07; Y 2.72; I 4.43; G 4.39; M 1.99; C 2.18; E 4.45; Q 2.88; K 4.11; A 2.07; R 3.26; D 5.38; H 1.98; V 2.96; S 2.64; P 2.44; L 2.01; W 2.4; T 2.23
Y3: A 5.06; C 4.74; N 5.12; Q 5.36; W 3.87; L 4.52; T 5.54; G 4.82; V 3.54; E 5.43; D 4.89; R 5.36; I 4.21; M 4.4; H 4.07; F 3.71; S 4.76; P 5.15; K 5.17
F7: W 3.9; C 5.09; L 4.53; E 5.24; S 5.41; M 4.48; P 4.49; R 5.71; I 4.21; T 5.27; H 4.57; V 4.92; G 5.22; D 5.21; N 5.13; K 5.18; A 5.3; Q 5.15; Y 4.55
L10: S 5.06; I 4.26; P 4.62; F 3.95; D 5.16; Y 4.52; C 3.5; G 4.95; E 5.09; T 4.55; A 4.71; H 4.58; R 4.54; M 4.81; K 4.88; Q 4.93; V 4.86; N 4.75; W 3.95
G6: R 3.9; E 4.2; N 4.04; I 3.03; T 3.57; D 4.85; L 2.3; A 3.34; F 2.58; S 3.89; M 3.12; W 2.32; C 3; H 3.71; Q 4.17; K 4.05; P 4.73; V 2.55; Y 1.71
K8: D 5.05; N 4.74; P 4.79; F 2.99; Q 4.72; Y 3.58; E 5.1; M 3.73; G 4.65; S 4.56; L 3.17; R 4.33; T 3.54; I 2.51; V 3.52; A 4.16; C 3.36; H 3.81; W 2.27
V5: Y 4.09; L 4.55; E 4.47; F 4.34; Q 4.65; C 4.08; G 4.19; T 4.96; H 4.76; N 4.36; W 3.68; A 4.95; K 4.65; R 4.82; P 4.99; I 4.38; D 4.65; M 4.51; S 4.86
F1: S 4.44; K 4.39
